We go through 2 substances from publication PMC6716341 (ACS Central Science, 2019).

The test system of series [1] is NSC-hTERT. The note with it: incubated with NSC-hTERT cells; cited from earlier work.
Series [2] relates to SK-N-SH. The note with it: incubated with SK-N-SH cells; cited from earlier work.
Series [3] relates to SH-SY5Y. The following applies: incubated with SH-SY5Y cells; cited from earlier work.
A short description of series [4]: In vitro aging: isomerization of Asp1 and Asp7. It counts as physicochemical. The following applies: from the rates in Figure 4.

With “isomerized Aβ1–42: isomerized Aβ1–42 studied by Makarov and co-workers”, the “toxicity relative to canonical form” value in series [1], in series [2] and in series [3] was “more toxic than the canonical form” throughout.

For “Aβ: amyloid beta in general; isomerization estimated from the measured rates”, the “degree of isomerization within a 30 h time frame” value in series [4] is around 0.2%.
